Literature values, collected in PMC9377792.
pKd: −log10 of the molar value.

Target: uPAR (Homo sapiens) (UniProt Q03405)
UniProt Q03405, sequence (Q03405 23-305): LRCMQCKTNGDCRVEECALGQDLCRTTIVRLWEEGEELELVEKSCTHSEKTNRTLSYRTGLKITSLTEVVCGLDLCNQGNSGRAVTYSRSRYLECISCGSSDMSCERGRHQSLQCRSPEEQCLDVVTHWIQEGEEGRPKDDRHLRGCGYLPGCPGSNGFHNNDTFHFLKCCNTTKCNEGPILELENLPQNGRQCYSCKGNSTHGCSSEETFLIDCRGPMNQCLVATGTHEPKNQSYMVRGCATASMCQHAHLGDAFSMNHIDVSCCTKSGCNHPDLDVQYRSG

pKd: 7.43
Substance: Factor XII (from UniProt P00748)
